From patent publication US20250346673A1 (DUALITY BIOLOGICS SUZHOU, published 2025)

T1: cynomolgus BDCA2 (cynomolgus monkey, UniProt A0A2K5UWP4 1-212)
T1 construct: whole, on cells; also called Cyno BDCA2; cynoBDCA2
T1 sequence: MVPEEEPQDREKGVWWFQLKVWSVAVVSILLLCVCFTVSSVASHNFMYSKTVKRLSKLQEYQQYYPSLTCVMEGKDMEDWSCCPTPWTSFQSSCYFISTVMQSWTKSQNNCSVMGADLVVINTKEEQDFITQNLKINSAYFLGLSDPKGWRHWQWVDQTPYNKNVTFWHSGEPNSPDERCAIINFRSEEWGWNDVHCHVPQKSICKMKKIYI

T2: human BDCA2 (human, UniProt Q8WTT0 1-213)
T2 construct: whole, on cells; also called hBDCA2; Blood dendritic cell antigen 2
T2 sequence (looked up): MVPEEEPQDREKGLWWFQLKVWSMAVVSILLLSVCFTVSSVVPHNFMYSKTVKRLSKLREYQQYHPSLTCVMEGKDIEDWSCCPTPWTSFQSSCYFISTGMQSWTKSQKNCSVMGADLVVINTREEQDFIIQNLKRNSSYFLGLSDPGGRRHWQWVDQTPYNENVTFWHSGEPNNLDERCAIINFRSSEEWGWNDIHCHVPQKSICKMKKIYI

T3: Recombinant Human BDCA2 (human, UniProt Q8WTT0 45-213, limits assumed)
T3 construct: also called hBDCA2 (SPR analyte); human BDCA2 antigen
T3 sequence (looked up): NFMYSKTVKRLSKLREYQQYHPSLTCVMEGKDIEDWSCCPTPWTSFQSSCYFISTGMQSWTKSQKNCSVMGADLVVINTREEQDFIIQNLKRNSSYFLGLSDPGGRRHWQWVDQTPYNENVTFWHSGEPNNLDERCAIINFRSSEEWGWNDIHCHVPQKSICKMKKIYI

B1: Hu005-07 (antibody, IgG1, V domains shown)
VH: QVQLQESGPGLVKPSETLSLTCTVSGGSITNYGVHWIRQPPGKGLEWIGVIWSGESTDYDAAFISRVTISKDNSKNQVSLKLSSVTAADTAVYYCARRRSHYYGYVMDYWGQGTTVTVSS
VL: DIVLTQSPASLAVSPGQRATITCKASQSIDYDAIGYLNWYQHKPGQPPKLLIYAASNLESGVPARFSGSGSGTDFTLTINPVEANDTANYYCQQSNEDPPTFGQGTKLEIK
notes: Humanized IgG1; also called hu005-07(BM5)
B2: Hu005-04 (antibody, human IgG1, kappa, V domains shown)
VH: QVQLQQSGPGLVKPSETLSLTCTVSGGSLTNYGVHWIRQPPGKGLEWIGVIWSGESTDYDAAFISRVTISKDNSKNQVSLKLSSVTAADTAVYYCARRRSHYYGYVMDYWGQGTTVTVSS
VL: DIVLTQSPASLAVSPGQRATITCKASQSIDYDAIGYLNWYQQKPGQPPKLLIYAASNLESGVPARFSGSGSGTDFTLTINPVEANDTANYYCQQSNEDPPTFGQGTKLEIKR
notes: Humanized IgG1; also called hu005-04(BM6)
B3: Hu005-08 (antibody, IgG1, V domains shown)
VH: QVQLQQSGPGLVKPSETLSLTCTVSGGSLTNYGVHWIRQPPGKGLEWIGVIWSGESTDYDAAFISRVTISKDNSKNQVSLKLSSVTAADTAVYYCARRRSHYYGYVMDYWGQGTTVTVSS
VL: DIVLTQSPASLAVSPGQRATITCKASQSIDYDAIGYLNWYQHKPGQPPKLLIYAASNLESGVPARFSGSGSGTDFTLTINPVEANDTANYYCQQSNEDPPTFGQGTKLEIK
notes: Humanized IgG1; also called hu005-08(BM7)
B4: Hu005-03 (antibody, IgG1, V domains shown)
VH: QVQLQESGPGLVKPSETLSLTCTVSGGSITNYGVHWIRQPPGKGLEWIGVIWSGESTDYDAAFISRVTISKDNSKNQVSLKLSSVTAADTAVYYCARRRSHYYGYVMDYWGQGTTVTVSS
VL: DIVLTQSPASLAVSPGQRATITCKASQSIDYDAIGYLNWYQQKPGQPPKLLIYAASNLESGVPARFSGSGSGTDFTLTINPVEANDTANYYCQQSNEDPPTFGQGTKLEIK
notes: Humanized IgG1; also called hu005-03(BM4)
B5: mab021c (antibody, V domains shown)
VH: DVQLQESGPGLVKPSQSLSLTCSVTGYSITSAYYWNWIRQFPGNKLECMGYITYDGNNYYSPSLKNRISITRDTSKNQFFLNLNSVTTEDTATYFCARGGDYDDGGFAFWGQGTLVTVSA
VL: DIQMTQSPASLSASVGETVTITCRASGNIHNYLAWYHQKQGKSPQLLVYNAKSLVDGVPSRFSGSGSGTQYSLRINSLQPEDFGSYYCQHFWIVPYTFGGGTKLEII
B6: mab030c (antibody, V domains shown)
VH: DVQLQESGPGLVKPSQSLSLTCSVTGYSITSAYYWNWIRQFPGNKLECMGYISYDGSNYYNPSLKNRISITRDTSKNQFFLSLNSVTTEDTATYFCVRGGDYDDGGFAYWGQGTLVTVSA
VL: DIQMTQSPASLSASVGETVTITCRASGNIHNYLAWYQQKQGKSPQLLVYNAKTLADGVPSRFSGSGSETQYSLKINSLQPEDFGNYFCQHFWIIPYTFGGGTKLEIK
B7: mab027c (antibody, V domains shown)
VH: DVQLQESGPGLVKPSQSLSLTCSVTGYSITSAYYWNWVRQFPGNQLECMGYITYDGSNNYNPSLKNRISITRDTSKNQFFLKLNSVTTEDTATYYCVRGGDYDDGGFAYWGQGTLVTVSA
VL: DIQMTQSPASLSASVGETVTITCRASGNIHNYLAWYQQKQGKSPQLLVYNAKTLVDGVPSRFSGSGSGTEYSLKINSLQPEDFGIYFCQHFWIIPYTFGGGTKLEIR
B8: mab019c (antibody, V domains shown)
VH: EVKLVESGGDLVQPGGSLKLSCAASGFTFSDYYMYWVRQTPEKRLEWVAYISYSGDSTYYPDTVKGRFTISRDNAKNTLFLQMSRLKSEDTAMYYCARHSPSFPYYFDYWGQGTALTVSS
VL: EIVLTQSPAITAASLGQKVTITCSASSSVSYMHWYQQKSGTSPKPWIYEISKLASGVPARFSGSGSGTSYSLTISSMEAEDAAIYYCQLWNYPLITFGGGTNLEIK
B9: mab020c (antibody, V domains shown)
VH: DVQLQESGPGLVKPSQSLSLTCSVTGYSIASGYYWNWIRQFPGNKLEWMGYISFDGTYNYNPSLKDRFSITRDTSKNQFFLKLNSVTTEDTATYYCARGVDYPNAIDWWGQGTSVTVSS
VL: DIVLTQSPASLAVSLGQRATISCRASESVSMHVTHLIHWYQQKPGQPPKLLIYVASNLESGVPARFSGSGSETDFTLNIHPVEEEDAATYFCQQSFEDPWTFGGGTKLEIK
B10: mab024c (antibody, V domains shown)
VH: EVQLVESGGDLVKPGGSLKLSCAASGFTFSSFGMSWVRQTPDKRLDWVATISSGDSYTYYPDSVKGRFSISRDNAKNTLYLQMSSLKSEDTAVYYCARQIYYDYAYYFDYWGQGTTLTVSS
VL: DIVLTQSPASLAVSLGQRATISCRASESVSFRSSHLMHWYRQKPGQPPKLLIYAASNLESGVPARFSGSGSETDFTLNIHPVEEEDAAAYFCQQSIEDPPTFGGGTKLEIK
B11: mab022c (antibody, V domains shown)
VH: DVQLQESGPGLVKPSQSLSLTCSVTGYSITSGYYWNWIRQFPGNKLEWMGYISFDGTYNYNPSLKDRFSITRDTSKNQFFLKLNSVTTEDTATYYCARGVDYPKAMDWWGQGTSVTVSS
VL: DIVLTQSPASLAVSLGQRATISCRASESVSMHVTHLIHWYQQKPGQPPKLLIYVASNLESGVPARFSGSGSETDFTLNIHPVEEEDAATYFCQQSFEDPWTFGGGTKLEIK
B12: mab033c (antibody, V domains shown)
VH: EVQMVESGGDLVKPGDSLKLSCAASGFTFRSYGMSWVRQTPDKRLEWVATISSGDSYTYYPDSVKGRFTISRDNAKNTLYLQMSSLKSEDTALYYCARQIYYDYAYYFDFWGQGTTLTVSS
VL: DIVLTQSPASLAVSLGQRATISCRASESVSFRTSHLMHWYQQKPGQPPKLLIYGASNLESGVPARFSGSGSETDFTLNIHPVEEEDAAAYFCQQSIEDPPTFGGGTKLEIK

Key:
cynomolgus BDCA2 [1] = molecular target: T1, cynomolgus BDCA2; test: FACS, 293F-cynoBDCA2 cells
human BDCA2 [2] = molecular target: T2, human BDCA2; test: FACS, CHOK1-humanBDCA2 cells
Experimental: (§1) The cells were recovered and resuspended to 2×10⁶/mL with FACS buffer (PBS+2% FBS). The resuspended cells were added to 3799 cell plates at 100 μL/well, and the supernatant was discarded after centrifugation at 300 g. […] The cells were incubated at 4° C. for 1 h. The incubated cells were centrifuged at […] for 5 min and washed twice with FACS buffer. 100 μL Goat anti-Human IgG (H+L) Cross-Adsorbed Secondary Antibody, Alexa Fluor 488 (Sigma, A11013; 1:1000) secondary antibody was added, washed twice with FACS buffer after incubation at 4° C. for 1 h. The cells were resuspended with PBS, then the fluorescence signal of antibodies bound to cell surface was analyzed with FACS (BD FACS CantoTM II) instrument and curves were fitted with GraphPad Prism6 to calculate EC₅₀ values for antibodies binding to BDCA2 antigen.

human BDCA2 [3] = molecular target: T2, human BDCA2; test: cell-based or functional assay
human BDCA2 [4] = molecular target: T2, human BDCA2; test: FACS on CHOK1-hBDCA2 cells; EC50 table beside the plot, unit from the x axis (nM) [continued) c.]
Experimental: The cells were recovered and resuspended to 2×10⁶/mL with FACS buffer (PBS+2% FBS). The cells were added to 3799 cell plates (Corning) at 100 μL/well, and the supernatant was discarded after centrifugation at 300 g. The antibodies were serially diluted with FACS buffer (Id.), the diluted antibodies were added to centrifuged cells and the cells were resuspended. The cells were incubated at 4° C. for 1 h. The incubated cells were centrifuged at 300 g for 5 min and washed twice with FACS buffer. 100 μL […] anti-Human IgG (H+L) Cross-Adsorbed Secondary Antibody-Alexa Fluor 488 (Sigma, A11013; 1:1000) secondary antibody was added, washed twice with FACS buffer after incubation at 4° C. for 1 h, resuspended with PBS, analyzed with FACS (BD FACS CantoTM II) instrument and curve fitted with GraphPad Prism6, and EC₅₀ values were calculated.

human BDCA2 [5] = molecular target: T2, human BDCA2; test: cell-based or functional assay; remark: listed apart in the source
cynomolgus BDCA2 [6] = molecular target: T1, cynomolgus BDCA2; test: FACS, 293F-cynoBDCA2 cells; remark: listed apart in the source
Experimental: as §1

human BDCA2 [7] = molecular target: T2, human BDCA2; test: FACS, CHOK1-humanBDCA2 cells; remark: listed apart in the source
Experimental: as §1

Recombinant Human BDCA2 = molecular target: T3, Recombinant Human BDCA2; test: SPR (BIAcore), antibody captured by anti-human IgG (Fc), hBDCA2 as analyte, 1:1 model
Experimental: Then 1 M ethanolamine was injected at 10 μL/min flow rate for 420 seconds, and the excess active carboxyl groups on chip were blocked. The humanized antibodies were injected into a detection channel flow cell at flow rate of 10 μL/min for 60 s for capture after diluting to 1 μg/mL using running buffer. […] The sample hBDCA2 to be tested of each concentration gradient was injected into the detection channel at 30 μL/min flow rate, two samples at 0 concentration were used to remove background signal. The binding and dissociation times between antigen and antibody were 180 and 400 sec, respectively. An analysis of data was performed using Biacore Insight Evaluation Software (Version 2.0. 15.12933). A 1:1 binding model was selected for curve fitting and kinetic parameters were calculated after subtraction of signal of the reference channel (flow cell 1) and at 0 concentration.

| binding result (cynomolgus BDCA2 [1]) | EC50 (human BDCA2 [2]) | IC50, inhibition of IFNα secretion, CpG-A stimulated human PBMC (human BDCA2 [3]) | EC50 (human BDCA2 [4]) | also measured | Binder |
| --- | --- | --- | --- | --- | --- |
| binds | 2 nM | – | – | – | B1 |
| binds | 2.3 nM | – | – | – | B2 |
| binds | 2.3 nM | – | – | – | B3 |
| binds | 2.1 nM | – | – | – | B4 |
| – | – | 0.0127 nM | 0.479 nM | – | B5 |
| – | – | 0.0164 nM | 0.583 nM | – | B6 |
| – | – | 0.00898 nM | 0.443 nM | – | B7 |
| – | – | 0.0149 nM | 5.17 nM | – | B8 |
| – | – | 0.0185 nM | 0.831 nM | – | B9 |
| – | – | 0.0168 nM | 0.549 nM | – | B10 |
| – | – | 0.0324 nM | 0.939 nM | – | B11 |
| – | – | 0.00833 nM | 0.277 nM | EC50 (nM), inhibition of CpG-A stimulated IFNα release from human PBMC (human BDCA2 [5]): 0.02 nM; EC50 (cynomolgus BDCA2 [6]): 0.56 nM; EC50 (human BDCA2 [7]): 0.26 nM; Kd (Recombinant Human BDCA2): 0.11 nM; koff (Recombinant Human BDCA2): 7.67e-05 s⁻¹; kon (Recombinant Human BDCA2): 698000 M⁻¹ s⁻¹ | B12 |
